Test results as given in article PMC12152872 (2025).
Several values for one entry are separate records, joined by “and”; a condition that tells them apart may be missing. Equal values may be shown once.

Molecular target: T1, BTN2A1 B30.2 (Homo sapiens, UniProt Q7KYR7)
T1 chain: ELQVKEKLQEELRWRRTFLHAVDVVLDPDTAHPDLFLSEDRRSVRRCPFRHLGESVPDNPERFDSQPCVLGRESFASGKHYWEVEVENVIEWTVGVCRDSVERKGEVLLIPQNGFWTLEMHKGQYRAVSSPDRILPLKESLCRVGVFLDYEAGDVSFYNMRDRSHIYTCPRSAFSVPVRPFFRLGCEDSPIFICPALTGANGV
Assay: ITC

Kd: 8.19 µM and 18.8 µM
B1: BTN3A1 B30.2 (protein)
chain: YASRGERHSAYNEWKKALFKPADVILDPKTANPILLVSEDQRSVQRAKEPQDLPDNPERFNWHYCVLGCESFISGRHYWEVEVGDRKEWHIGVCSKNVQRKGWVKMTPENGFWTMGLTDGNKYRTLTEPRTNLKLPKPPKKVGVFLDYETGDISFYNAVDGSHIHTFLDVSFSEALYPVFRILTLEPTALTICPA
modifications: DMASPP
